According to the supplement of paper PMC9170038:

Test system: MS2 coat protein
Experiment: apparent KD of MS2 coat protein; higher = weaker reporter binding
Settings: Eterna round: R107
Summary of the method: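 SNAP-549-labelled MS2 coat protein was titrated onto designed RNA switches that had been transcribed on-chip from Illumina sequencing clusters. Amounts doubled from 0.7 or 1.5 nM to 3 µM in 100 mM Tris-HCl pH 7.5, 80 mM KCl, 4 mM MgCl2, with constant ligand or without. Apparent KD is the median per design of normalised cluster binding-curve fits.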

[1] = input ligand: theophylline 20 uM
[2] = input ligand: theophylline 2 mM
[3] = input ligand: tryptophan 2.4 mM

Row | Sequence | apparent KD of MS2 coat protein (input ligand: arginine 13.2 mM) [nM] | apparent KD of MS2 coat protein (input ligand: none) [nM] | apparent KD of MS2 coat protein [1] [nM] | apparent KD of MS2 coat protein [2] [nM] | apparent KD of MS2 coat protein [3] [nM]
1 | GGUCUCGAGGGCGAUACCAGCUUGAUCGUACUGGCCUGGUACAUGAGGAUCACCCAUGUAAGCCCUUGGCAGCGCGCUCGAGACC [#1 Exclusion - Theophylline B Attempt #6 (HarryS)] | 7.85 | 11 | 18.5 | 29.3 | 17
2 | GGUGUAUCCAUCGAUACCAGCCACCACCGAUAGACCACAUGAGGAUCACCCAUGUUGGGUGGCCCUUGGCAGCGGUGGCUGUGCC [Same State - Theophylline B Attempt #3 (HarryS)] | 79.9 | – | 592 | – | 353
3 | GGUUACUCUACGGCCGCCACUGAUUAAUUAUAAACCUGUACAUAAACAUGAGGAUCACCCAUGUACAGGACCGGGUAGUGUAACC [Tryptophan B 9] | 30.5 | – | 46.9 | 39.1 | –
4 | GGUUGGUGUAGAGAUAUAUUGAUUACUGAAGGAGCGGGAACAAACCCAGGUAGGUCGCAGAGAUCCACAUGAGGAUCACCCAUGU [!0.N] | 35.2 | 31.6 | 58.3 | 39.3 | 41.5
5 | GGUUUGCGGCCUGAUACCAGUGAUGGAUGAACCCUAGUCAACAUGAGGAUCACCCAUGUUCACCCUUGGCAGCAGUGACGCUCGA [theeternabot_exclusion_MS2_Theo_B_34] | 43.2 | 69.7 | 78.7 | 354 | 74.1
6 | GUAAAGUAAAGAAGGAGCGUCGAAAAUGGGUAAACAUGAGGAUCACCCAUGUAAAGGGAACGACAGGUAGGUCGCUUUAUUUUAC [AstromonsSSArgB#17] | 86.7 | 199 | 223 | 284 | 189
7 | GUAAUUAUAAGAAGGAGCGUCGAAAAUGGGUAAACAUGAGGAUCACCCAUGUAAAGGGAACGACAGGUAGGUCGCUUAUGAUUAC [AstromonsSSArgB#22] | 76.5 | 185 | 164 | 274 | 202
8 | GUAAUUAUAAGAAGGAGCGUCGAAAAUGGGUAAACAUGAGGAUCACCCAUGUAAAGGGAACGACAGGUAGGUCGCUUAUGGUUAC [AstromonsSSArgB#24] | 99.2 | 200 | 245 | 305 | 214
9 | GUACAUGAGGAUCACCCAUGUAUAGUUGAAGGAGCGACCGGUGGGUCAGGUAGGUCGCAGCACAUGGCGUCAACCCGUGUAUGCC [#1 Exclusion - Arginine A Attempt #26 (Inspired by Pi)] | 18.1 | 17.6 | 26.7 | 22.1 | 17.2
10 | GUAUUAACAAAAGUUGAUACAGUGGGUGAACGAGGACCGGUACGGCCGCCACUCGGACAUGAGGAUCACCCAUGUCCAUGUGAAA [AstrosExyTryA#12] | 15.9 | – | 19.2 | 17.2 | –
11 | GUCCACAGCCGAAGGAGCGCUAGAAGAUGACAUGAGGAUCACCCAUGUGUGUGGUGUGGCUAGCAGGUAGGUCGCGGAGUGGAUU [Exclusion - Arginine B (Freestyle 15)] | 39.7 | 30.5 | 59.3 | 39 | 26.1
12 | GUCCGCAGCCGAAGGAGCGCUAGAAGGUGACAUGAGGAUCACCCAUGUGUGUGAUGUGGCUAGCAGGUAGGUCGCGGAGCGGAUU [Exclusion - Arginine B (Freestyle 18)] | 85.2 | 59.2 | 110 | 76.7 | 61.9
13 | GUCCUCAGCCGAAGGAGCGCUAGAAGGUGACAUGAGGAUCACCCAUGUGUGUGAUGUGGCUAGCAGGUAGGUCGCGGAGAGGAUU [Exclusion - Arginine B (Freestyle 17)] | 107 | 98.6 | 157 | 127 | 78.8
14 | GUCUUGGAAUCGGCCGCCACUACAUGAGGAUCACCCAUGUGGACAAAUAGGGUUUUUAAGCUCGGUAGGACCGGGAUUCGGACAU [Mamaon] | 12.3 | 14.3 | 15.9 | 18 | 66
15 | GUGUGGCGCUCGGCCGCCACUCAGACAUGAGGAUCACCCAUGUAGAACAUGAGGAUCACCCAUGUGAGGACCGGGAGACACACGA [Exclusion Tryptophan B GF11] | 164 | 288 | 288 | 404 | 308
16 | GUGUUAUGCUCGGCCGCCACUCUGACAUGAGGAUCACCCAUGUUGUACAUGAGGAUCACCCAUGUGAGGACCGGGAGAAACACGA [Exclusion Tryptophan B GF9] | 191 | 193 | 191 | 209 | 274
17 | UAAAAUAAAAGGGUGAAGGUAUAAACAGAUACCAGCCAGAUAACUGGCCCUUGGCAGCUGAAUGACAUGAGGAUCACCCAUGUCU [TheoAS 21 #OpenEnded #Ms2Late] | 13.1 | – | 17.7 | – | 14.5
18 | UAACAUGAGGAUCACCCAUGUAUACUAAGUCGAGGACCGGUACGGCCGCCACUCGAACUUCAAGAAUAGGCGGUAAAUGUAAGUA [JR_ExcTryptoA_Sub020] | 11.8 | – | 16.5 | 14 | –
